# Legend:
# [1] = target: T1, L1-CAM-ankyrin interactions (Homo sapiens, UniProt Q01484); assay: Ankyrin recruitment assay: ankyrinB co-localization with L1-CAM at the membrane of transfected 293 cells; assay type: cell-based; conditions: 1.4 μg/ml peptide for 30 minutes
# T1 construct: expressed in transfected cells; host or cells: human kidney 293 cells
# Procedure: Cell culture aid transfection: Human kidney 293 cells were cultured in DMEM medium (Gibco) supplemented with penicillin, streptomycin, L-glutamine, and 10% fetal bovine serum (Hyclone). The pMyc-L1-CAM or pL1-CAM-GFP expression constructs were transfected into cultured human kidney 293 cells using Lipofectamine plus (Invitrogen) according to manufacturer instructions. Cells were cultured for 24-48 hours and then used, or cultured continuously in the presence of 0.5 μg.mL G418 (Gibco) to select for stably transfected cells lines, to generate stable pooled lines of L1-CAM-expressing cells.
# In some instances, transfected 293 cells were treated with neural growth factor (NGF) or epidermal growth factor (EGF) to stimulate phosphorylation of tyrosine 1229 (Y1229) of the L1-CAM cytoplasmic domain, and thereby inhibit ankyrin binding. In these cases, cells were treated with 50 ng/mL EGF (Gibco) or 100 ng/mL NGF (Gibco) for 1 hour prior to the assay. […]
# Ankyrin and L1-CAM were detected by indirect immunofluorescence in double-labeled confocal sections through cell aggregates to permit the visualization of L1 and ankyrinB at the cell membrane. Expression of myc-L1-CAM was detected using a polyclonal anti-L1-CAM rabbit antibody. […] Ankyrin was detected using a monoclonal anti-ankyrinB mouse antibody (BD PharMingen). […]
# Quantification of ankyrin immunolocalization: Confocal micrographs were then used to quantify the degree of ankyrin localization to the cell membrane of myc-L1-CAM expressing cells. Images were analyzed using ImageJ (NIH) under Macintosh OSX. The method for quantifying ankyrinB localization to the membrane uses densitometry of a line scan perpendicular to and crossing a cell-cell junction. […]
# The densitometry intensity profile of the scanned line was used to determine a minimum ankyrinB signal for comparison to the value of the ankyrinB signal at the point where the maximum signal in the L1-CAM channel occurs. […] Minima were determined from the regions of the line overlapping the cytoplasm of either of the two cells. […]
# [2] = test system: complex containing L1-CAM, ankyrin B and Cav2.2; assay: Co-precipitation of L1-CAM and ankyrin B with Cav2.2 channel protein from DRG neurons; assay type: cell-based; conditions: chick DRG neurons treated with saline; peptide pretreatment
# Procedure: Co-precipitation: 1×10^6 DRG cells were used for each condition. DRG neurons were exposed to control solution containing 100 μM bicuculline or 100 μM GABA in the presence of 100 μM bicuculline. After agonist treatment, DRG neurons were lysed with ice-cold buffer (phosphate buffered saline, pH 7.4, containing 250 μM sodium pervanadate, 1% (v/v) NP-40, 1 mM Pefabloc, 1 mM EDTA, 1 mM EGTA, 10 μg/ml pepstatin, 10 μg/ml leupeptin, and 100 μg/ml soybean trypsin inhibitor, 100 μg/ml calpain I and 100 μg/ml calpain II inhibitors. The α1subunit of the Cav2.2 channel was immunoprecipitated as previously described (Schiff, M. L et al., (2000). Nature 408:723-726.).
# Cell culture, transmitter application: Cell culture and transmitter application, were performed as described in Example 10, supra. For experiments determining the effect of activation of GABAB receptors upon L1-CAM-ankyrin-calcium channel interaction in DRG neurons, calcium channels were precipitated from DRG neurons treated with saline or baclofen for 20 seconds using anti-pan alpha 1 antibody and then immunoblotted for ankyrin (anti-ankyrin B antibody) or L1-CAM (8D9 anti-NgCAM).
# T1 sequence (Q01484 whole entry): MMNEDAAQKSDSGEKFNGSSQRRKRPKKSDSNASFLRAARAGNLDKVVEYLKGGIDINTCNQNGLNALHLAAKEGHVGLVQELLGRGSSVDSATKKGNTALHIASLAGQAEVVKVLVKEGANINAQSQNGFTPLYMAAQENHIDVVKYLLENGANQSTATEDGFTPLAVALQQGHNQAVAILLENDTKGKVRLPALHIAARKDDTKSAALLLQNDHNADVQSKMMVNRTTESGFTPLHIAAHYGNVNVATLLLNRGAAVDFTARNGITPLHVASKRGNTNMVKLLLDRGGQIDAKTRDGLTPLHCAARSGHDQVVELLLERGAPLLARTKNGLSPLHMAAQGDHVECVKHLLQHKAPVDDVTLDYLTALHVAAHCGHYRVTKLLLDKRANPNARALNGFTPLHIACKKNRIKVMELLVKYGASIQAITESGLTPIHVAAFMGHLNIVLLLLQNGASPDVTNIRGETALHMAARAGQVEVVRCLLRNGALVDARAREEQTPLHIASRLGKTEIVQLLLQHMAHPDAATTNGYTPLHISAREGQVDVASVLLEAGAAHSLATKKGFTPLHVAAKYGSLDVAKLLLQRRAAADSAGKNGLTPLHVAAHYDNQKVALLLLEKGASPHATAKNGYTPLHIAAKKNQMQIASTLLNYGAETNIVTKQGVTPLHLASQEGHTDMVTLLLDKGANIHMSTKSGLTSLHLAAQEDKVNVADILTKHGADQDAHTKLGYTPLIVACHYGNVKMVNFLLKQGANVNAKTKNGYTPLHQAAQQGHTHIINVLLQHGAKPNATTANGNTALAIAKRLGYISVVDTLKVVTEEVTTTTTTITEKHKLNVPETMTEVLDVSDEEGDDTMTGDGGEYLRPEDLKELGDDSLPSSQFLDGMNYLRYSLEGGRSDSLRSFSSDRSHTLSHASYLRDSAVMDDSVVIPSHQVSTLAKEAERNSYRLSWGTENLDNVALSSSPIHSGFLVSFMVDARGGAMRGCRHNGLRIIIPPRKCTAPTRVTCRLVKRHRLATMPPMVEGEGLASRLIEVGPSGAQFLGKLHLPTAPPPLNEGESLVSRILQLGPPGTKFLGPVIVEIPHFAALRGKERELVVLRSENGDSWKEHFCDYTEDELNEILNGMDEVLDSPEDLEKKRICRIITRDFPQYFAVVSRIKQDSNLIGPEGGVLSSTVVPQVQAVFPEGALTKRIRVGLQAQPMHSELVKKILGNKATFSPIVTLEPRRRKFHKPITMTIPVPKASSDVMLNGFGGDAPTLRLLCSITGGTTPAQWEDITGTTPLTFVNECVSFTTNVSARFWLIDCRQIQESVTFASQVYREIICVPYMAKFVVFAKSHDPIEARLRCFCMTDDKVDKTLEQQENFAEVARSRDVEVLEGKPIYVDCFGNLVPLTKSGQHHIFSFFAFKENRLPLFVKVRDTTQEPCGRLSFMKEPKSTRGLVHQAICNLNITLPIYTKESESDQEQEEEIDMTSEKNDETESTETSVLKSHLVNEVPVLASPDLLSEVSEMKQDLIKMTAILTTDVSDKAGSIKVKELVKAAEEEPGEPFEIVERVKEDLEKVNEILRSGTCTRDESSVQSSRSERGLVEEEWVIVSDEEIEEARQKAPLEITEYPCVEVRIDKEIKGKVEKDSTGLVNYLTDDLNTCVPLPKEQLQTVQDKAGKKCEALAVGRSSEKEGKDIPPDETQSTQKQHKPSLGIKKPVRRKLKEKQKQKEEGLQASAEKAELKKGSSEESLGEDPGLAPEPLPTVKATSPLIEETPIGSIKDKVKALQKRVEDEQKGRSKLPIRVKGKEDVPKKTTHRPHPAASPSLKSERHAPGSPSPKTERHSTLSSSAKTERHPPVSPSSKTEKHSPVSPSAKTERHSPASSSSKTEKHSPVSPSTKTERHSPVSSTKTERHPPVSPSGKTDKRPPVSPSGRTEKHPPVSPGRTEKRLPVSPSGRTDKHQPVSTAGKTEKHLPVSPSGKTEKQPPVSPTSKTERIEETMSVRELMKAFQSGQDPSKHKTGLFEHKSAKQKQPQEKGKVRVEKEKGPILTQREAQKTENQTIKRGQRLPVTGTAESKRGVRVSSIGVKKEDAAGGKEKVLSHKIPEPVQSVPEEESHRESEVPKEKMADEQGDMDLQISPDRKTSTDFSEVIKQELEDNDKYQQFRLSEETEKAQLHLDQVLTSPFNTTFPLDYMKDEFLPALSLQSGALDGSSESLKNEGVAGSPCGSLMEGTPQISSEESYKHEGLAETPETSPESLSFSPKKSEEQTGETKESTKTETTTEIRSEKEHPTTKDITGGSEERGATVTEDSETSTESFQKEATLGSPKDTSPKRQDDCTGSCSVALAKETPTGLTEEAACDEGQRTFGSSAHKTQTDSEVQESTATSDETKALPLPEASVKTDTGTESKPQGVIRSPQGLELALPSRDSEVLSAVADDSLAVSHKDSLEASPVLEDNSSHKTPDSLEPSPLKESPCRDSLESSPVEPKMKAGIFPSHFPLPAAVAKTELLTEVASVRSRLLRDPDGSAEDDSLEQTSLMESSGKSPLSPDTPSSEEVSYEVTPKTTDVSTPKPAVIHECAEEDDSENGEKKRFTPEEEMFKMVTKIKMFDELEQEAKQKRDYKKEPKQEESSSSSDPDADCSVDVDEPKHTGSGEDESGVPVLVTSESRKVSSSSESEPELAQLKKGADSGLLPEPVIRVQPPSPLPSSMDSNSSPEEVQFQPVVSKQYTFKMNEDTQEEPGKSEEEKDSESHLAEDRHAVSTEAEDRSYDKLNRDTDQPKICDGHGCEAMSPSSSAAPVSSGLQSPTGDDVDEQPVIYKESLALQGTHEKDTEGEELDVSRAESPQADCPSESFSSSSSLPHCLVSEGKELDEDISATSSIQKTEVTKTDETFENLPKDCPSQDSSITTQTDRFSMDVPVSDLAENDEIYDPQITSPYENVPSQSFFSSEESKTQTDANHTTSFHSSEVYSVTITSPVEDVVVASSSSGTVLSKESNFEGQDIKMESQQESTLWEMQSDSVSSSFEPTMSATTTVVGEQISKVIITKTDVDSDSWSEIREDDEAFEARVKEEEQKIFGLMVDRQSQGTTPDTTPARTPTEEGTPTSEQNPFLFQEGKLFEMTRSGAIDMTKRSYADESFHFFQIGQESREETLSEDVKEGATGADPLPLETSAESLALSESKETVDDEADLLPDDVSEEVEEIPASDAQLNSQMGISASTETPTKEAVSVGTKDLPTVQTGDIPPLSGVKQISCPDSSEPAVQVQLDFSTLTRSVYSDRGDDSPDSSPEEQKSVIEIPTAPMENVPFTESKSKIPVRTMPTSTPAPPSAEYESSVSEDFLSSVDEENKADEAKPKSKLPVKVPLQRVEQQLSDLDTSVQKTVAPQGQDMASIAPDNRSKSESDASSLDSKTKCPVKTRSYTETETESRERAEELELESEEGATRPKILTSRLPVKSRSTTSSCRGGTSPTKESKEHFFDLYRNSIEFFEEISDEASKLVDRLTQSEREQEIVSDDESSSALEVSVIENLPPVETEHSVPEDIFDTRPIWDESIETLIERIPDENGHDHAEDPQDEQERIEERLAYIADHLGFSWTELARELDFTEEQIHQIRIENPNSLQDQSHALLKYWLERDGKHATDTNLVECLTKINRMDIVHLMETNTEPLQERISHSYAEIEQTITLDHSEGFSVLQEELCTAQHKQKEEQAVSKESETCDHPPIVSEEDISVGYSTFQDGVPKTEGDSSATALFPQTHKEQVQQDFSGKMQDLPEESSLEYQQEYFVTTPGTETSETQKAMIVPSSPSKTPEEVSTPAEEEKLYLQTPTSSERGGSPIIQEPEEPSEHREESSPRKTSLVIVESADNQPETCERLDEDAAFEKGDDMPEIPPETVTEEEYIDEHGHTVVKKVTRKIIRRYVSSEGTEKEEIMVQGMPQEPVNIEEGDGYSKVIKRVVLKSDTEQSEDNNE
Sequence,ankyrin co-localization with L1-CAM at the cell membrane (L1-CAM-ankyrin interactions) [1],co-precipitation of L1-CAM and ankyrin B with Cav2.2 channel protein [2]
RQIKIWFQNRRMKWKKFQGIFSGDENFQ [AP-Scramble],no detectible effects,not
RQIKIWFQNRRMKWKKQFNEDGSFIGQF [AP-YF],inhibited L1-CAM-ankyrin interactions,abolished the interaction

# — patent US7737250B2, “Peptides for treating axonal damage, inhibition of neurotransmitter release and pain transmission, and blocking calcium influx in neurons” (Mount Sinai School of Medicine of New York University, priority 2003, dated 2010)
